Experimental data published in patent publication US11266968B2, “Mineralizing biosurfactant used for nucleating silica” (THE UNIVERSITY OF QUEENSLAND, priority 2013, dated 2022).

Legend:
[1] = Precipitation of silica from TEOS by biosurfactants; conditions: 400 μM peptide, 25 mM HEPES pH 7.5 and 8.0, 80 mM TEOS, room temperature
Method: To test whether biosurfactants SEQ ID NO: 153 and SEQ ID NO: 154 were able to precipitate silica, separate aqueous solutions of SEQ ID NO: 153 and SEQ ID NO: 154 (400 μM) in HEPES buffer (25 mM) at pH 7.5 and 8.0 were prepared and TEOS (80 mM) was added. A solution of each biosurfactant was retained without TEOS as a control. The mixtures were gently stirred at room temperature. A transparent gel-like precipitate formed within a few minutes in those compositions which had TEOS added whereas the control remained a solution. The precipitate was isolated and extensively washed with water and vacuum dried. The precipitate was analyzed by elemental analysis using EDS in conjunction with scanning electron microscopy (SEM, JEOL 6610). […] Excess oxygen, carbon and sulfur also found in the analysis were consistent with entrapped peptide.

[2] = Dynamic light scattering of nanoemulsions and nanocapsules; format: physicochemical; conditions: for Number-average diameter (dn) of oil droplets in nanoemulsion / Polydispersity index (PDI) of nanoemulsion: 400 μM peptide, 800 μM ZnCl2, 2% v/v Miglyol 812, HEPES pH 7.0, after sonication; for Increase in number-average diameter of nanoemulsion after dialysis: dialysis 20 hours against HEPES 25 mM, pH 7.5 or 8.0, 10 kDa membrane; for PDI of nanocapsules: 80 mM TEOS, 25 mM HEPES
Method: (§1) The size distribution profile of the nanoemulsions and nanocapsules was determined by dynamic light scattering (DLS, Malvern Zetasizer Nano ZS) and the samples were diluted by a factor of 100 prior to the measurement. The morphology and shell thickness of the nanocapsules were examined by transmission electron microscopy (TEM, JEOL 1010, 100 kV accelerating voltage). Samples (2 μL) were taken directly from the reaction mixtures, deposited onto Formvar-coated copper grids (200 mesh), and left to air-dry prior to examination. Samples were also analyzed for high-resolution (HR) TEM (JEOL 2100, 200 kV accelerating voltage) equipped with an energy dispersive X-ray spectroscopy (EDS) detector. The formation of amorphous silica was verified by selected area electron diffraction (SAED) in HRTEM.
Separate solutions of SEQ ID NO: 153 (400 μM) and SEQ ID NO: 154 (400 μM) in HEPES buffer (25 mM, pH 7.0) in the presence of ZnCl2 (800 μM) were mixed with Miglyol® 812 (2% v/v) by sonication (Branson Sonifier 450, 10 W, 4×30 s burst and interspersed with cooling in an ice bath for 60 s). After sonication, the compositions were macroscopically identical and homogeneous with cloudy appearance.
The nanoemulsion compositions (1 mL) were dialyzed against HEPES buffer (500 mL, 25 mM, pH 7.5 or 8.0) using a 10 kDa cellulose membrane to adjust pH of each nanoemulsion and to remove residual peptide. After dialysis for 20 hours there was only a slight increase, approximately 5%, in the number-average diameter of nanoemulsions stabilized by either SEQ ID NO: 153 or SEQ ID NO: 154 and the PDIs remained similar. The nanoemulsions were stable to dialysis.
(§2) Each of the dialyzed nanoemulsion compositions from Example 2 at pH 7.5 or 8.0 were divided into a number of separate glass vials. One composition of each peptide nanoemulsion at each pH was retained as a control. To the other compositions, three concentrations of TEOS were added to separate vials, 20 mM, 40 mM and 80 mM, and the compositions were gently stirred for 20 to 50 hours. The compositions were then analyzed by DLS and a size increase consistent with the formation of a thick layer surrounding the oil droplet core in TEOS-containing solutions was observed.

[3] = TEM measurement of nanocapsule silica shell thickness and diameter; format: physicochemical
Method: as §1, §2
The shell thickness of at least 100 individual nanocapsules were measured by TEM (a dark ring around the perimeter of the bright core). The silica layer formed on SEQ ID NO: 153 and SEQ ID NO: 154 nanoemulsions at pH 7.5 was 22±5 nm and 12±2 nm thick respectively and at pH 8.0, 35±5 nm and 27±6 nm respectively.
SEQ ID NO: 155 was used to facilitate formation and stabilization of nanoemulsions, and subsequently direct nucleation and growth of silica shell encasing the nanoemulsion template. A solution of SEQ ID NO: 155 (115 μM) in HEPES buffer (25 mM, pH 7.5) was mixed with Miglyol® 812 oil (10% v/v) by sonication at 10 W using Branson Sonifier 450 for 4×30 s burst and interspersed with cooling in an ice bath for 60 s. An aliquot of SEQ ID NO: 155 nanoemulsions (400 μL) was transferred to a glass vial and added with TEOS (80 mM). The mixture was then stirred at room temperature for 20 h to form silica shell surrounding the nanoemulsions.

[4] = pH 7.5, 20 hours silicification
[5] = pH 8.0, 20 hours silicification
[6] = pH 7.5, at least 100 nanocapsules by TEM
[7] = pH 8.0, at least 100 nanocapsules by TEM
[8] = 115 μM protein, 10% v/v Miglyol 812, pH 7.5, 80 mM TEOS, 20 h

| Molecule | Ability to precipitate/nucleate silica [1] | Number-average diameter (dn) of oil droplets in nanoemulsion [2] [nm] | Polydispersity index (PDI) of nanoemulsion [2] | Increase in number-average diameter of nanoemulsion after dialysis [2] | PDI of nanocapsules [2, 4] | PDI of nanocapsules [2, 5] | Silica shell thickness ([3]; 30 hours, 20 mM TEOS, 25 mM HEPES pH 7.5) [nm] | Silica shell thickness ([3]; 30 hours, 40 mM TEOS, 25 mM HEPES pH 7.5) [nm] | Silica shell thickness ([3]; 30 hours, 80 mM TEOS, 25 mM HEPES pH 7.5) [nm] | Silica shell thickness [3, 6] [nm] | Silica shell thickness [3, 7] [nm] | Outer diameter of nanocapsules [3, 8] [nm] | Silica shell thickness [3, 8] [nm] |
| --- | --- | --- | --- | --- | --- | --- | --- | --- | --- | --- | --- | --- | --- |
| Ac-MKQLAHSVSRLEHA-RKKRKKRKKRKKGGGY-CONH2 (Ac-MKQLAHSVSRLEHARKKRKKRKKRKKGGGY-NH2) [SEQ ID NO: 154, custom synthesized mineralizing biosurfactant peptide, Mw 3632.4] | can nucleate silica | ~40 | 0.293 | approximately 5% | 0.146 | 0.233 | 5±1 | 10±2 | 16±3 | 12±2 | 27±6 |  |  |
| Ac-MKQLAHSVSRLEHA-SSKKSGSYGGSKGSKRRIL-NH2 (Ac-MKQLAHSVSRLEHASSKKSGSYGGSKGSKRRIL-NH2) [SEQ ID NO: 153, custom synthesized mineralizing biosurfactant peptide, Mw 3643.2] | can nucleate silica | ~80 | 0.329 | approximately 5% | 0.242 | 0.794 |  |  |  | 22±5 | 35±5 |  |  |
| MDPS MKQLADS LHQLARQ VSRLEHA DPS MKQLADS LHQLARQ VSRLEHA DPS MKQLADS LHQLARQ VSRLEHA DPS MKQLADS LHQLARQ VSRLEHA EPS-RKKRKKRKKRKKGGGY (protein, recombinant mineralizing biosurfactant protein produced in Escherichia coli) MDPSMKQLADSLHQLARQVSRLEHADPSMKQLADSLHQLARQVSRLEHADPSMKQLADSLHQLARQVSRLEHADPSMKQLADSLHQLARQVSRLEHAEPSRKKRKKRKKRKKGGGY |  |  |  |  |  |  |  |  |  |  |  | 249±29 | 26±2 |
